Measured values taken from the supplement of paper PMC6757056.
± gives the standard deviation of the averaged measurements.

B1: library; a variant is named by its letters at N, in order (parent)
chain: GCUGUCACCGAGAAACUGUGAAGUAUAUCUUAAACCUGGGCACUUAAAAGAUAUAUGGAGUUAGUAGUGCAACCUGCUCGGUCUGAUGAGUCCNNNNNNGGACGAAACAGC

Experiments:
cyclic di-GMP [1] = variants of: B1; assay: normalized RNA/DNA level without ligand (relative to sTRSVctl = 100) (log10 (% of sTRSVctl)); HEK293T; ligand: cyclic di-GMP (c-di-GMP-II aptamer); higher = less ribozyme self-cleavage, higher mRNA level; details: reporter: mCherry (pCS4076), ligand present: no
How it was run: (§1)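 For each 6-well well, 4 µg of library plasmid encoding mCherry-linked ribozyme switches, or eGFP-linked ones in some ligand experiments, was transfected into HEK293T. Any ligand was added 1 h before transfection, and RNA was extracted with EDTA 72 h after it, then reverse-transcribed, amplified, barcoded and sequenced. RNA level was obtained by dividing RNA reads by DNA reads, normalizing to a spiked-in non-cleaving sequence or to the top sequences, then scaling and log-transforming. The top set was 25 sequences, scaling was ×100 with log10, and ≥100 DNA reads were required.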

cyclic di-GMP [2] = variants of: B1; assay: normalized RNA/DNA level with ligand (relative to sTRSVctl = 100) (log10 (% of sTRSVctl)); HEK293T; ligand: cyclic di-GMP (c-di-GMP-II aptamer); ligand concentration (+) RNA-Seq: 1 mM; higher = less ribozyme self-cleavage, higher mRNA level; details: reporter: mCherry (pCS4076), ligand present: yes
How it was run: as §1

Row | Variant | normalized RNA/DNA level without ligand (log10) (cyclic di-GMP [1]) | normalized RNA/DNA level with ligand (log10) (cyclic di-GMP [2])
1 | GCUGUCACCGAGAAACUGUGAAGUAUAUCUUAAACCUGGGCACUUAAAAGAUAUAUGGAGUUAGUAGUGCAACCUGCUCGGUCUGAUGAGUCCCUACCUGGACGAAACAGC [CUACCU] | 1.59 ± 0.032 | 1.77 ± 0.078
2 | GCUGUCACCGAGAAACUGUGAAGUAUAUCUUAAACCUGGGCACUUAAAAGAUAUAUGGAGUUAGUAGUGCAACCUGCUCGGUCUGAUGAGUCCACGGCCGGACGAAACAGC [ACGGCC] | 1.78 ± 0.063 | 1.87 ± 0.13
3 | GCUGUCACCGAGAAACUGUGAAGUAUAUCUUAAACCUGGGCACUUAAAAGAUAUAUGGAGUUAGUAGUGCAACCUGCUCGGUCUGAUGAGUCCUCCUGCGGACGAAACAGC [UCCUGC] | 1.79 ± 0.062 | 1.91 ± 0.053
4 | GCUGUCACCGAGAAACUGUGAAGUAUAUCUUAAACCUGGGCACUUAAAAGAUAUAUGGAGUUAGUAGUGCAACCUGCUCGGUCUGAUGAGUCCCUUAAGGGACGAAACAGC [CUUAAG] | 1.69 ± 0.05 | 1.89 ± 0.079
5 | GCUGUCACCGAGAAACUGUGAAGUAUAUCUUAAACCUGGGCACUUAAAAGAUAUAUGGAGUUAGUAGUGCAACCUGCUCGGUCUGAUGAGUCCGUUGUGGGACGAAACAGC [GUUGUG] | 1.66 ± 0.09 | 1.82 ± 0.079
6 | GCUGUCACCGAGAAACUGUGAAGUAUAUCUUAAACCUGGGCACUUAAAAGAUAUAUGGAGUUAGUAGUGCAACCUGCUCGGUCUGAUGAGUCCUGCAUAGGACGAAACAGC [UGCAUA] | 1.7 ± 0.027 | 1.84 ± 0.084
7 | GCUGUCACCGAGAAACUGUGAAGUAUAUCUUAAACCUGGGCACUUAAAAGAUAUAUGGAGUUAGUAGUGCAACCUGCUCGGUCUGAUGAGUCCGAUCCGGGACGAAACAGC [GAUCCG] | 1.88 ± 0.068 | 1.95 ± 0.15
8 | GCUGUCACCGAGAAACUGUGAAGUAUAUCUUAAACCUGGGCACUUAAAAGAUAUAUGGAGUUAGUAGUGCAACCUGCUCGGUCUGAUGAGUCCCCCGUGGGACGAAACAGC [CCCGUG] | 1.62 ± 0.024 | 1.8 ± 0.09
9 | GCUGUCACCGAGAAACUGUGAAGUAUAUCUUAAACCUGGGCACUUAAAAGAUAUAUGGAGUUAGUAGUGCAACCUGCUCGGUCUGAUGAGUCCAACUGCGGACGAAACAGC [AACUGC] | 1.686 ± 0.0067 | 1.82 ± 0.089
10 | GCUGUCACCGAGAAACUGUGAAGUAUAUCUUAAACCUGGGCACUUAAAAGAUAUAUGGAGUUAGUAGUGCAACCUGCUCGGUCUGAUGAGUCCGCAACUGGACGAAACAGC [GCAACU] | 1.582 ± 0.0092 | 1.77 ± 0.13
11 | GCUGUCACCGAGAAACUGUGAAGUAUAUCUUAAACCUGGGCACUUAAAAGAUAUAUGGAGUUAGUAGUGCAACCUGCUCGGUCUGAUGAGUCCGUCUGAGGACGAAACAGC [GUCUGA] | 1.54 ± 0.018 | 1.75 ± 0.11
12 | GCUGUCACCGAGAAACUGUGAAGUAUAUCUUAAACCUGGGCACUUAAAAGAUAUAUGGAGUUAGUAGUGCAACCUGCUCGGUCUGAUGAGUCCUAAGUCGGACGAAACAGC [UAAGUC] | 1.663 ± 0.0049 | 1.8 ± 0.11
13 | GCUGUCACCGAGAAACUGUGAAGUAUAUCUUAAACCUGGGCACUUAAAAGAUAUAUGGAGUUAGUAGUGCAACCUGCUCGGUCUGAUGAGUCCUCAGAGGGACGAAACAGC [UCAGAG] | 1.53 ± 0.045 | 1.69 ± 0.042
14 | GCUGUCACCGAGAAACUGUGAAGUAUAUCUUAAACCUGGGCACUUAAAAGAUAUAUGGAGUUAGUAGUGCAACCUGCUCGGUCUGAUGAGUCCUCCAACGGACGAAACAGC [UCCAAC] | 1.62 ± 0.037 | 1.78 ± 0.11
15 | GCUGUCACCGAGAAACUGUGAAGUAUAUCUUAAACCUGGGCACUUAAAAGAUAUAUGGAGUUAGUAGUGCAACCUGCUCGGUCUGAUGAGUCCGAAGUCGGACGAAACAGC [GAAGUC] | 1.59 ± 0.021 | 1.74 ± 0.038
16 | GCUGUCACCGAGAAACUGUGAAGUAUAUCUUAAACCUGGGCACUUAAAAGAUAUAUGGAGUUAGUAGUGCAACCUGCUCGGUCUGAUGAGUCCGGCGACGGACGAAACAGC [GGCGAC] | 1.76 ± 0.093 | 1.88 ± 0.16
17 | GCUGUCACCGAGAAACUGUGAAGUAUAUCUUAAACCUGGGCACUUAAAAGAUAUAUGGAGUUAGUAGUGCAACCUGCUCGGUCUGAUGAGUCCGGGAACGGACGAAACAGC [GGGAAC] | 1.68 ± 0.031 | 1.84 ± 0.057
18 | GCUGUCACCGAGAAACUGUGAAGUAUAUCUUAAACCUGGGCACUUAAAAGAUAUAUGGAGUUAGUAGUGCAACCUGCUCGGUCUGAUGAGUCCAUAUGGGGACGAAACAGC [AUAUGG] | 1.56 ± 0.033 | 1.75 ± 0.14
19 | GCUGUCACCGAGAAACUGUGAAGUAUAUCUUAAACCUGGGCACUUAAAAGAUAUAUGGAGUUAGUAGUGCAACCUGCUCGGUCUGAUGAGUCCGGUUAGGGACGAAACAGC [GGUUAG] | 1.54 ± 0.062 | 1.7 ± 0.08
20 | GCUGUCACCGAGAAACUGUGAAGUAUAUCUUAAACCUGGGCACUUAAAAGAUAUAUGGAGUUAGUAGUGCAACCUGCUCGGUCUGAUGAGUCCAAACGAGGACGAAACAGC [AAACGA] | 1.39 ± 0.15 | 1.57 ± 0.097
21 | GCUGUCACCGAGAAACUGUGAAGUAUAUCUUAAACCUGGGCACUUAAAAGAUAUAUGGAGUUAGUAGUGCAACCUGCUCGGUCUGAUGAGUCCCUUCGAGGACGAAACAGC [CUUCGA] | 1.71 ± 0.026 | 1.84 ± 0.065
22 | GCUGUCACCGAGAAACUGUGAAGUAUAUCUUAAACCUGGGCACUUAAAAGAUAUAUGGAGUUAGUAGUGCAACCUGCUCGGUCUGAUGAGUCCCAUAUCGGACGAAACAGC [CAUAUC] | 1.63 ± 0.069 | 1.79 ± 0.047
23 | GCUGUCACCGAGAAACUGUGAAGUAUAUCUUAAACCUGGGCACUUAAAAGAUAUAUGGAGUUAGUAGUGCAACCUGCUCGGUCUGAUGAGUCCGCACCUGGACGAAACAGC [GCACCU] | 1.6643 ± 0.00076 | 1.85 ± 0.14
24 | GCUGUCACCGAGAAACUGUGAAGUAUAUCUUAAACCUGGGCACUUAAAAGAUAUAUGGAGUUAGUAGUGCAACCUGCUCGGUCUGAUGAGUCCCACCCGGGACGAAACAGC [CACCCG] | 1.81 ± 0.025 | 1.94 ± 0.12
25 | GCUGUCACCGAGAAACUGUGAAGUAUAUCUUAAACCUGGGCACUUAAAAGAUAUAUGGAGUUAGUAGUGCAACCUGCUCGGUCUGAUGAGUCCGCGGCAGGACGAAACAGC [GCGGCA] | 1.82 ± 0.032 | 1.9 ± 0.12
26 | GCUGUCACCGAGAAACUGUGAAGUAUAUCUUAAACCUGGGCACUUAAAAGAUAUAUGGAGUUAGUAGUGCAACCUGCUCGGUCUGAUGAGUCCAGGUGGGGACGAAACAGC [AGGUGG] | 1.69 ± 0.031 | 1.78 ± 0.12
